Test results taken from patent US8624002B2, “Prostaglandin E2 binding proteins and uses thereof” (AbbVie, Inc., priority 2008, dated 2014).

Assays:
^3H-PGE2 ELISA (binding) = assay: ^3H-PGE2 ELISA (binding)
Procedure: Alternatively, prostaglandin binding was determined using a ^3H-PGE2 ELISA. Plates were coated at 50 μL/well with 5 μg/ml of goat anti-human IgG (Fc) (Thermo Scientific # 31170, Hudson, N.H.) or goat anti-mouse IgG (Fc) (Thermo Scientific # 31125, Hudson, N.H.) in PBS and incubated overnight at 4° C. The following day, plates were flicked and blotted dry. Plates were blocked with 200 μL/well of Superblock (Thermo Scientific # 37515, Hudson, N.H.) for 1 hour at room temperature. Plates were flicked and blotted dry. Monoclonal antibodies were diluted to 0.04 μg/ml in phosphate buffer solution with Tween 20 (PBST) (Abbott Bioresearch Center, Worcester, Mass.) and 10% Superblock and 50 μL of each antibody was added to each well of the pre-blocked ELISA plate at 2 ng/well and incubated for 1 hour at room temperature. Wells were washed 3 times with PBS+0.1% Tween-20. A serial 3-fold titration of ^3H-PGE2 (Perkin Elmer # NET-428, Waltham, Mass.) was prepared in PBST/10% Superblock. Fifty microliters of the ^3H-PGE2 solution was added to each well of the plate and incubated for 1 hour at room temperature. […] Plates were read using a TopCount reader (Perkin Elmer, Waltham, Mass.) with a 5 minute count delay. An EC50 number was determined using GraphPad Prism 5 (GraphPad Software, La Jolla, Calif.).

[1] = Capillary zone electrophoresis; type: physicochemical; details: running buffer pH 5.5; compared with Hu2B5.2, Hu2B5.4, Hu2B5.6, Hu2B5.8
Text: Capillary zone electrophoresis is a capillary electrophoresis method in which the capillary is filled with buffer and the separation mechanism is based on differences in electrophoretic mobility of the analyte through the buffer. The electrophoretic mobility of a molecule is related to the charge-to-size ratio. A Beckman-Coulter ProteomeLab PA 800 (Beckman Coulter, Fullerton, Calif.) was used for the CZE analysis. A neutral capillary (eCAP neutral, 56 cm total length, 50 μm I. D. Beckman-Coulter, P/N 477441, Fullerton, Calif.) was used. The method used a 30.2 cm capillary with a detection window 20.2 cm from the sample introduction inlet. The running buffer was 100 mM EACA (6-Aminocaproic acid, Sigma A7824-100 G, St. Louis, Mo.) with 0.1% MC (from 1% Methylcellulose solution, Convergent Bioscience, cat# 101876, Toronto, ON, Canada), pH 5.5.

[2] = Intrinsic thermodynamic stability by DSC; type: physicochemical
Procedure: The thermal stability of the anti-PGE2 antibodies was assessed using a DSC instrument. The DSC instrument used was an automated VP-DSC equipment with Capillary Cell (Microcal, GE Healthcare Ltd./Microcal, Buckinghamshire, UK). Unfolding of molecules was studied applying a 1° C./minute scan rate over a 25° C.-95° C. temperature range for samples at 1 mg/mL. Additional measurement parameters applied were a fitting period of 16 seconds, a pre-scan wait time of 10 minutes, and measurements were performed in none-feedback mode. Per individual measurement, 420 μL of sample/blank were filled into the DSC measurement sample holder, with a plate fill scheme as provided below. The thermograms obtained were fitted to a non two state model to obtain the midpoint temperatures and enthalpies of the different transitions.
(§1) The stability of a series of clones (i.e., anti-PGE2 antibodies) of the parent anti-PGE2 antibody was assessed by using intrinsic thermodynamic clone stability determination using DSC (0.79 mg/mL clone concentration, formulated at pH 6 in a 10 mM citrate, 10 mM phosphate buffer) and by accelerated stability screening (0.79 mg/mL clone concentration, formulated at pH 6 in a 10 mM citrate, 10 mM phosphate buffer, for 7 days at 50° C.) where clone stability was monitored with SEC (Table 15).

[3] = tested on: PGE2 induced Ca++ influx in HEK293 Gα16 cells stably transfected with human EP4 receptor; assay: EP4 bioassay: PGE2 induced Ca++ flux (FLIPR); type: cell-based; details: PGE2 25 pm; read-out: IC50 (pM) @ PGE2 25 pm Cellular Potency in EP4 assay
Procedure: The ability of anti-PGE2 antibody to inhibit cellular response of PGE2 in vitro was determined in a Ca^++ flux assay in HEK293 Gα16 cells (Abbott Bioresearch Center, Worcester, Mass.) stably transfected with human EP4 receptor. In brief, an expression plasmid encoding one of the four human PGE2 receptors, EP4, and an expression plasmid encoding Gα16, were co-transfected into human embryonic kidney cell line 293 cells (ATCC# CRL1573, Manassas, Va.). The stable clones co-expressing both human EP4 and Gα16 protein were selected using standard methods (Joseph Sambrook and David W. Russell. Molecular Cloning: A Laboratory Manual Publisher. Published by Cold Spring Harbor Laboratory Press, 2001) and used for the EP4 bioassay. The HEK293 Gα16 cells were plated in black/clear poly-D-lysine plates (Corning #3667, Corning, N.Y.) and incubated with a Ca^++-sensitive dye (Molecular Devices, Sunnyvale, Calif.) for 90 minutes. Stock PGE2 (in 200 proof ethanol) was diluted with FLIPR buffer [containing 1×HBSS (Invitrogen Carlsbad, Calif.), 20 mM HEPES (Invitrogen Carlsbad, Calif.), 0.1% BSA (Sigma, St. Louis, Mo.) and 2.5 mM Probenecid (Sigma, St. Louis, Mo.)]. Anti-PGE2 antibodies or isotype matched control antibodies were also pre-diluted in FLIPR buffer. 25 μl of PGE2 or pre-incubated PGE2/antibody mixture was added to the wells pre-plated with cells. The dose response of PGE2 was determined on a serial titration of PGE2 and using FLIPR1 or Tetra (Molecular Devices, Sunnyvale, Calif.) and EC50 was determined using GraphPad Prism 5 (GraphPad Software, La Jolla, Calif.). […] Ca^++ flux was monitored using FLIPR1 and data was analyzed using GraphPad Prism 5 (GraphPad Software, La Jolla, Calif.).

[4] = Accelerated stability screening monitored by SEC; type: physicochemical; details: for Aggregate (%) / Fragment (%) / Monomer (%): SEC
Procedure: Size exclusion chromatography was used to separate proteins based on size. Proteins are carried in an aqueous mobile phase and through a porous stationary phase resin packed in a column. The retention time in the column is a function of the hydrodynamic size of the protein and the size of the pores in the packed resin bed. Smaller molecules can penetrate into smaller pores in the resin and are retained longer than larger molecules. Upon elution from the column the proteins are detected by UV absorbance. The SEC method used a TSK gel guard (TOSOH Biosciences, Montgomeryville, Pa., cat. no. 08543) and a TSK gel G3000SWxL (TOSOH Biosciences, Montgomeryville, Pa., cat. no. 08541). The mobile phase was 100 mM Na2HPO4, 200 mM Na2SO4, pH 7.0. The flow rate was 0.3 mL/minute. Injection volume was 20 μL of 1 mg/mL sample. The column temperature was room temperature. The autosampler temperature was 2-8° C. The total run time was 50 minutes. The detection was based on UV absorbance at 214 nm wavelength, with band width set at 8 nm, using reference wavelength at 360 nm with band width 100 nm.
as §1

B1: Hu2B5.9: humanized 2B5-8.0; VH SEQ ID NO 76, VL SEQ ID NO 77 (antibody, V domains shown)
VH: EVQLVQSGAEVKKPGASVKVSCKASGYTFTKYWLGWVRQAPGQGLEWMGDIYPGYDYTHYNEKFKDRVTMTTDTSTSTAYMELRSLRSDDTAVYYCARSDGSSTYWGQGTLVTVSS
VL: DIVMTQTPLSLPVTPGEPASISCTSSQNIVHSNGNTYLEWYLQKPGQSPQLLIYKVSNRFSGVPDRFSGSGSGTDFTLKISRVEAEDVGVYYCFQVSHVPYTFGGGTKVEIKR
IC50 (^3H-PGE2 ELISA (binding)): 0.704 nM
migration in capillary zone electrophoresis [1]: migrated more basic
Tm1 (° C.) ([2]; 0.79 mg/mL, pH 6, 10 mM citrate, 10 mM phosphate): 73.235 °C
Tm2 (° C.) ([2]; same buffer): 75.965 °C
Tm3 (° C.) ([2]; same buffer): 83.04 °C
IC50 [3]: 125 pM
monomer levels after 7 days accelerated stability screening ([4]; 7 days at 50° C.): highest monomer levels
Aggregate (%) ([4]; 7 days storage at 50° C.): 1.9559%
Fragment (%) ([4]; 7 days storage at 50° C.): 3.4127%
Monomer (%) ([4]; 7 days storage at 50° C.): 94.6313%
Fragment (%) ([4]; start of stability study): 2.541%
Monomer (%) ([4]; start of stability study): 95.6031%
Aggregate (%) ([4]; start of stability study, 0.79 mg/mL, pH 6): 1.8559%
